In this test the target is GST-obscurin-PH (human) (UniProt Q5VST9). Kind of test: SPR; Biacore 3000; GST-obscurin-PH immobilised on a CM5 chip, HIS-PI3K-p85/SH3 as analyte at 8-250 nM, 20 ul/min, 180 s association, 180 s dissociation; 1:1 Langmuir model.
UniProt Q5VST9, sequence (Q5VST9 5895-6004): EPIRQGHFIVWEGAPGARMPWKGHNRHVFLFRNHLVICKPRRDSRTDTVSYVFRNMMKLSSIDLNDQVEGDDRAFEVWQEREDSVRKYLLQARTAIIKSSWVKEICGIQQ

As to “HIS-PI3K/p85-SH3 (from UniProt O00459 4-80) (domain or fragment)”, the Kd (usually a measure of binding affinity in units of concentration) turned out to be 50 nM.

The values are drawn from PMC5216731.
